For assay [1], the target named is T1, 6 × His tagged huSIRPγ ECD recombinant protein (Homo sapiens (Human)., UniProt Q9P1W8).
T1 construct: signal regulatory protein gamma (SIRPγ, SIRP beta2), human, extracellular domain; also called signal regulatory protein gamma; SIRP beta2; source: bought: KACTUS
Kind of assay: SPR; Biacore T200, 25°C; antibody captured on anti-human IgG (Fc) CM5 chip (80 ± 12 RU); 6 × His tagged SIRP analyte 30–0.9375 nM in 1× HBS-EP+; 1:1 binding model. Conditions: both partners purified. (In general: Surface plasmon resonance follows binding to a sensor surface in real time, without labels.)

Assay [2] has as its target T2, 6 × His tagged cynomolgus SIRPα ECD recombinant protein (Macaca fascicularis, UniProt A0A2K5VYQ9).
T2 construct: signal regulatory protein alpha (SIRPα), cynomolgus monkey, extracellular domain; also called cynomolgus monkey SIRPα; source: bought: KACTUS
Described as above. Conditions: both partners purified.

The target of assay [3] is T3, cynomolgus SIRPα overexpressed on CHOK1/cSIRPα cells (Macaca fascicularis, UniProt A0A2K5VYQ9).
T3 construct: signal regulatory protein alpha (SIRPα), cynomolgus monkey, overexpressed on CHO-K1 cells; also called cynomolgus SIRPα-expressing cells; source: CHOK1/cSIRPα cell line, bought: Chempartner
Kind of assay: flow cytometry on cells; serial dilutions of antibody on CHOK1 cells overexpressing SIRPα, 1 h at 4°C; Alexa Fluor 647 anti-human IgG Fcγ secondary antibody; MFI. The conditions noted are these: one partner purified.

T1 sequence (Q9P1W8 29-360): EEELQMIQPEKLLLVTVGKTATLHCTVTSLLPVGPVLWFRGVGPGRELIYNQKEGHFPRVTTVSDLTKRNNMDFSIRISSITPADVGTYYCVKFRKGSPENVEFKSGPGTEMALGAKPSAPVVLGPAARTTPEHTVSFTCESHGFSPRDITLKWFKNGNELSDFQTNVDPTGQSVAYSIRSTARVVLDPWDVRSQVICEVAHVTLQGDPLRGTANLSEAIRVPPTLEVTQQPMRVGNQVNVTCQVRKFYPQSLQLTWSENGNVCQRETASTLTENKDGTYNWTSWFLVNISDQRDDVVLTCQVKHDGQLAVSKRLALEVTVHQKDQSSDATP

B1: hu1H9 (an analogue of FSI-189, Gilead) (antibody, V domains shown)
VH: QVQLVQSGAEVKKPGASVKVSCKASGYTFTSYWITWVKQAPGQGLEWIGDIYPGSGSTNHIEKFKSKATLTVDTSISTAYMELSRLRSDDTAVYYCATGYGSSYGYFDYWGQGTLVTVSS
VL: DIQMTQSPSSLSASVGDRVTITCRASENIYSYLAWYQQKPGKAPKLLIYTAKTLAEGVPSRFSGSGSGTDFTLTISSLQPEDFATYYCQHQYGPPFTFGQGTKLEIK
notes: human IgG4
Regarding B1, the binding result in assay [1] is “binds”.

B2: HEFLB (an analogue of BI 765063) (antibody, V domains shown)
VH: EVQLVQSGAEVKKPGESLRISCKASGYSFTSYWVHWVRQMPGKGLEWMGNIDPSDSDTHYSPSFQGHVTLSVDKSISTAYLQLSSLKASDTAMYYCVRGGTGTLAYFAYWGQGTLVTVSS
VL: DVVMTQSPLSLPVTLGQPASISCRSSQSLVHSYGNTYLYWFQQRPGQSPRLLIYRVSNRFSGVPDRFSGSGSGTDFTLKISRVEAEDVGVYYCFQGTHVPYTFGGGTKVEIK
notes: human IgG4; also called analogue of BI 765063 (OSE-172)
For the molecule B2, the figures for the binding result in assay [2], in assay [1] and in assay [3] were “no binding (tested: 30 nM (highest analyte concentration))”, “no binding (tested: 30 nM (highest analyte concentration))” and “no binding”, respectively.

The values are drawn from article PMC11384143, “A pan-allelic human SIRPα-blocking antibody, ES004-B5, promotes tumor killing by enhancing macrophage phagocytosis and subsequently inducing an effective T-cell response” (Antibody Therapeutics, 2024).
